Publication PMC8151509 (International Journal of Molecular Sciences, 2021)

Columns and labels:
Conditions in all cases: both partners purified
serum-derived C1q [1] = molecular target: T1, serum-derived C1q (human, UniProt P02745 23-245); P02746 28-253; P02747 29-245, hydroxyprolines in the collagen-like region (shown as O in Figure 8A) | hydroxyprolines in the collagen-like region (shown as O in Figure 8A) | hydroxyprolines in the collagen-like region (shown as O …); test: SPR; LAIR-1 Ig-like domain injected at increasing concentrations (4-128, 4-256 or 3.125-400 µM) over immobilized C1q, rC1q variants, C1qCLR_nc2 variants or C1qstem_nc2 (CM5, amine coupling); 25 °C; 50 mM Tris, 150 mM NaCl, 2 mM CaCl2, 0.05% surfactant P20, pH 7.5; KD from Req versus concentration, steady-state model
T1 construct: Complement C1q, A chain; Complement C1q, B chain; Complement C1q, C chain; 18 polypeptide chains, six A-B-C heterotrimers, 460 kDa; also called sC1q; source: purified from human serum; copies: 6 + 6 + 6
T1 sequence (P02745 23-245, chain 1 of 3): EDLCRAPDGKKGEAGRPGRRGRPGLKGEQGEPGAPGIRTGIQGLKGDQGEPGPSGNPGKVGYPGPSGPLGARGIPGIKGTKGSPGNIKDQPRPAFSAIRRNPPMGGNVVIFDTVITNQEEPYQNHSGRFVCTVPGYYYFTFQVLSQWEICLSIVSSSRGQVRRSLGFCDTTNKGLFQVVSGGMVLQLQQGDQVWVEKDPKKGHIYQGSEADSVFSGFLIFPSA
T1 sequence (P02746 28-253, chain 2 of 3): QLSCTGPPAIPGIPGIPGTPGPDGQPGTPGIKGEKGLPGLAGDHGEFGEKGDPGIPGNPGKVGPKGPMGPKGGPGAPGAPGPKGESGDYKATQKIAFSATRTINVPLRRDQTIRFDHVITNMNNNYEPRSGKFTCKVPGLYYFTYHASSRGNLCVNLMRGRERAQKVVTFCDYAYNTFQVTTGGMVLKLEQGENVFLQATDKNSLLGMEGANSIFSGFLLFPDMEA
T1 sequence (P02747 29-245, chain 3 of 3): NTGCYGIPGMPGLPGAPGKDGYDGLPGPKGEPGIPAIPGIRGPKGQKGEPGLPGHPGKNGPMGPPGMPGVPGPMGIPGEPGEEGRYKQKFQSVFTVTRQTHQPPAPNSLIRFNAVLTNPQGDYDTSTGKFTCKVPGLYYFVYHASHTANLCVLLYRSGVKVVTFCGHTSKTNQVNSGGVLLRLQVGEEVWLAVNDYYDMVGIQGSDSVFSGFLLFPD

[2] = molecular target: T2, recombinant wild-type C1q (UniProt P02745 23-245; P02746 28-253; P02747 29-245); test: as above
T2 construct: Complement C1q, A chain; Complement C1q, B chain; Complement C1q, C chain; also called rC1q WT; source: recombinant, produced and purified as reported in Bally et al. [20]; copies: + +
T2 sequence (P02745 23-245, chain 1 of 3): as the sequence (P02745 23-245, chain 1 of 3) above
T2 sequence (P02746 28-253, chain 2 of 3): as the sequence (P02746 28-253, chain 2 of 3) above
T2 sequence (P02747 29-245, chain 3 of 3): as the sequence (P02747 29-245, chain 3 of 3) above

[3] = molecular target: T3, recombinant C1q mutant with an alanine substitution of LysA59, LysB61 and LysC58 (UniProt P02745 23-245; P02746 28-253; P02747 29-245, alanine substitution of LysA59 | alanine substitution of LysB61 | alanine …); test: as above
T3 construct: Complement C1q, A chain; Complement C1q, B chain; Complement C1q, C chain; also called rC1q ABC; source: recombinant, produced and purified as reported in Bally et al. [20]; copies: + +
T3 sequence (P02745 other isoform, or with tags, fused parts or gaps with the stated changes, chain 1 of 3): as the sequence (P02745 23-245, chain 1 of 3) above, with K59A counted along it
T3 sequence (P02746 other isoform, or with tags, fused parts or gaps with the stated changes, chain 2 of 3): as the sequence (P02746 28-253, chain 2 of 3) above, with K61A counted along it
T3 sequence (P02747 other isoform, or with tags, fused parts or gaps with the stated changes, chain 3 of 3): as the sequence (P02747 29-245, chain 3 of 3) above, with K58A counted along it

serum-derived C1q [4] = molecular target: T1, serum-derived C1q; test: SPR; LAIR-1 Ig-like domain (WT or mutant) injected at 10 µM over C1q or C1q fragment amine-coupled to a CM5 chip (sC1q 14,000 RU, sCLR 6000 RU, sGR 1500 RU); 25 °C; 50 mM Tris, 150 mM NaCl, 2 mM CaCl2, 0.05% surfactant P20, pH 7.5; association 180 s; mutants as percentage of the WT response at equilibrium
serum-derived C1q [5] = molecular target: T1, serum-derived C1q; test: SPR; sC1q (1 nM), alone or preincubated with C1r2s2 at increasing molar ratios (1-5; 15 min at 25 °C), injected over immobilized LAIR-1 Ig-like domain (330 RU); 50 mM Tris, 150 mM NaCl, 2 mM CaCl2, 0.05% surfactant P20, pH 7.5; 25 °C; avidity effects

Row | binding result (serum-derived C1q [4]) | Binder | further results
1 |  | LAIR-1 Ig-like domain, wild type (domain or fragment, human, UniProt Q6GTX8 22-122, looked up, Leukocyte associated immunoglobulin-like receptor 1 (LAIR-1; CD305), C2-type Ig-like domain, residues 22 to 122; pET28a construct; intact disulfide bond by ESI-MS; also called LAIR-1 WT; soluble LAIR-1 Ig-like domain) QEEDLPRPSISAEPGTVIPLGSHVTFVCRGPVGVQTFRLERDSRSTYNDTEDVSQASPSESEARFRIDSVREGNAGLYRCIYYKPPKWSEQSDYLELLVKE | Kd (serum-derived C1q [1]): 112 µM; Kd [2]: 99.5 µM; Kd [3]: 132 µM
2 | binds | LAIR-1 Ig-like domain I102L (domain or fragment, human, UniProt Q6GTX8 22-122, looked up, LAIR-1 (CD305), C2-type Ig-like domain, residues 22 to 122) QEEDLPRPSISAEPGTVIPLGSHVTFVCRGPVGVQTFRLERDSRSTYNDTEDVSQASPSESEARFRIDSVREGNAGLYRCLYYKPPKWSEQSDYLELLVKE | 
3 | binds | LAIR-1 Ig-like domain E111K (domain or fragment, human, UniProt Q6GTX8 22-122, looked up, LAIR-1 (CD305), C2-type Ig-like domain, residues 22 to 122) QEEDLPRPSISAEPGTVIPLGSHVTFVCRGPVGVQTFRLERDSRSTYNDTEDVSQASPSESEARFRIDSVREGNAGLYRCIYYKPPKWSKQSDYLELLVKE | 
4 | binds | LAIR-1 Ig-like domain P107R (domain or fragment, human, UniProt Q6GTX8 22-122, looked up, LAIR-1 (CD305), C2-type Ig-like domain, residues 22 to 122) QEEDLPRPSISAEPGTVIPLGSHVTFVCRGPVGVQTFRLERDSRSTYNDTEDVSQASPSESEARFRIDSVREGNAGLYRCIYYKPRKWSEQSDYLELLVKE | 
5 | binds | LAIR-1 Ig-like domain E72K (domain or fragment, human, UniProt Q6GTX8 22-122, looked up, LAIR-1 (CD305), C2-type Ig-like domain, residues 22 to 122) QEEDLPRPSISAEPGTVIPLGSHVTFVCRGPVGVQTFRLERDSRSTYNDTKDVSQASPSESEARFRIDSVREGNAGLYRCIYYKPPKWSEQSDYLELLVKE | 
6 |  | recombinant C1r2s2 tetramer (C1s, C1rS637A) (complex, Complement C1r protease; Complement C1s protease; also called C1r2s2 proteases tetramer; source: recombinant, purified according to published procedures [42]; copies: 2 + 2) chain 1: SIPIPQKLFGEVTSPLFPKPYPNNFETTTVITVPTGYRVKLVFQQFDLEPSEGCFYDYVKISADKKSLGRFCGQLGSPLGNPPGKKEFMSQGNKMLLTFHTDFSNEENGTIMFYKGFLAYYQAVDLDECASRSKSGEEDPQPQCQHLCHNYVGGYFCSCRPGYELQEDTHSCQAECSSELYTEASGYISSLEYPRSYPPDLRCNYSIRVERGLTLHLKFLEPFDIDDHQQVHCPYDQLQIYANGKNIGEFCGKQRPPDLDTSSNAVDLLFFTDESGDSRGWKLRYTTEIIKCPQPKTLDEFTIIQNLQPQYQFRDYFIATCKQGYQLIEGNQVLHSFTAVCQDDGTWHRAMPRCKIKDCGQPRNLPNGDFRYTTTMGVNTYKARIQYYCHEPYYKMQTRAGSRESEQGVYTCTAQGIWKNEQKGEKIPRCLPVCGKPVNPVEQRQRIIGGQKAKMGNFPWQVFTNIHGRGGGALLGDRWILTAAHTLYPKEHEAQSNASLDVFLGHTNVEELMKLGNHPIRRVSVHPDYRQDESYNFEGDIALLELENSVTLGPNLLPICLPDNDTFYDLGLMGYVSGFGVMEEKIAHDLRFVRLPVANPQACENWLRGKNRMDVFSQNMFCAGHPSLKQDACQGDAGGVFAVRDPNTDRWVATGIVSWGIGCSRGYGFYTKVLNYVDWIKKEMEEED chain 2: EPTMYGEILSPNYPQAYPSEVEKSWDIEVPEGYGIHLYFTHLDIELSENCAYDSVQIISGDTEEGRLCGQRSSNNPHSPIVEEFQVPYNKLQVIFKSDFSNEERFTGFAAYYVATDINECTDFVDVPCSHFCNNFIGGYFCSCPPEYFLHDDMKNCGVNCSGDVFTALIGEIASPNYPKPYPENSRCEYQIRLEKGFQVVVTLRREDFDVEAADSAGNCLDSLVFVAGDRQFGPYCGHGFPGPLNIETKSNALDIIFQTDLTGQKKGWKLRYHGDPMPCPKEDTPNSVWEPAKAKYVFRDVVQITCLDGFEVVEGRVGATSFYSTCQSNGKWSNSKLKCQPVDCGIPESIENGKVEDPESTLFGSVIRYTCEEPYYYMENGGGGEYHCAGNGSWVNEVLGPELPKCVPVCGVPREPFEEKQRIIGGSDADIKNFPWQVFFDNPWAGGALINEYWVLTAAHVVEGNREPTMYVGSTSVQTSRLAKSKMLTPEHVFIHPGWKLLEVPEGRTNFDNDIALVRLKDPVKMGPTVSPICLPGTSSDYNLMDGDLGLISGWGRTEKRDRAVRLKAARLPVAPLRKCKEVKVEKPTADAEAYVFTPNMICAGGEKGMDSCKGDSGGAFAVQDPNDKTKFYAAGLVSWGPQCGTYGLYTRVKNYVDWIMKTMQENSTPRED | binding result (serum-derived C1q [5]): binds
